Blank lines part the entries; values can stand above or below the binder they belong to. No end group written: not given here. SUMO = small ubiquitin-like modifier
Tests used:
SEC = target: the molecule itself; assay: SEC
dansylated CaM7 = dansylated CaM7 (Arabidopsis thaliana, UniProt P59220 1-149, dansyl (labelled with dansyl chloride; sites not stated)); assay: other fluorescence titration

Kd (dansylated CaM7): 190 nM
B1: SUMO-AtFBA5 (Arabidopsis fructose bisphosphate aldolase 5 with N-terminal His-SUMO tag) (enzyme, Arabidopsis thaliana, UniProt O65581 1-358, looked up)
chain: MSAFVGKYADELIKTAKYIATPGKGILAADESTGTIGKRFASINVENIESNRQALRELLFTSPGTFPCLSGVILFEETLYQKTTDGKPFVELLMENGVIPGIKVDKGVVDLAGTNGETTTQGLDSLGARCQEYYKAGARFAKWRAVLKIGATEPSELSIQENAKGLARYAIICQENGLVPIVEPEVLTDGSHDIKKCAAVTETVLAAVYKALNDHHVLLEGTLLKPNMVTPGSDSPKVAPEVIAEYTVTALRRTVPPAVPGIVFLSGGQSEEEATLNLNAMNKLDVLKPWTLTFSFGRALQQSTLKAWAGKTENVAKAQATFLTRCKGNSDATLGKYTGGASGDSAASESLYEEGYKY
stoichiometry N (SEC): 4

Kd (dansylated CaM7): 290 ± 130 nM
Binder: {SUMO}-IKKCAAVTETVLAAVYKALN (domain or fragment, not fully specified) [SUMO-AtFBA5 CaMBD (residues 194-213)]

B2: SUMO-AtFBA4 (Arabidopsis fructose bisphosphate aldolase 4 with N-terminal His-SUMO tag) (enzyme, Arabidopsis thaliana, UniProt F4KGQ0 1-393, looked up)
chain: MSCFKSKFAGKSYFRRTFHSSIIQFHPQLSILIWHRRYSIIRTYELIANAAYIGTPGKGILAADESTGTIGKRFVSINVENVESNRRALRELLFTTPGALQYISGIILFEETLYQKTASGKLFVDVMKEAGVLPGIKVDKGTVELAGTNGETTTTGLDGLGDRCKKYYEAGARFAKWRAVLKIGNNEPSELAIHENAYGLARYAVICQENGLVPIVEPEILVDGSHDIEKCAYVTERVLAACYKALSDHHVILEGTLLKPNMVTPGSDSGSKVKPEVIAKHTVRALQRTVPAAVPAVVFLSGGQSEEEATVNLNAINQLKGKKPWSLTFSYGRALQQSTLKAWGGKEENVDKAQKAFLARAKANSEATLGGYKGDAQLGEGASESLHVKDYKY
stoichiometry N (SEC): 4

Reference: paper doi:10.1101/2024.03.29.587371 (bioRxiv, 2024)
